Assay results from the RNAGym collection of RNA variant scans (doi:10.1073/pnas.2313332121).

B1: TPR t1 (parent)
chain: GACCAAUCUGCCCUCAGAGCUCGAGAACAUCUUCGGAUGCAGAGGAGGCAGGCUUCGGUGGCGCGAUAGCGCCAACGUCCUCAACCUCCAAUGCAUCCCACCACAUGAUGAUGCCUGAAGAGCCUUGGUUUUUUG

Variants of: B1
Experiment: polymerase ribozyme fitness, log enrichment relative to wild type (log ratio); higher = more active; in vitro selection for triplet polymerase activity
Procedure, shortened: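 A single round of triplicate in vitro selection, including frozen incubation at −7 °C, was applied to PCR-built, transcribed mutant libraries of each subunit of a heterodimeric triplet polymerase ribozyme. Illumina sequencing of input and output libraries retained genotypes with ≥10 input reads and ≥1 read per output. Fitness is the base-2 logarithm of genotype enrichment divided by wild-type enrichment, from inverse-variance-weighted replicate averages.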

Row | Variant | polymerase ribozyme fitness (log ratio)
1 | C56G C64U C123U | 0.0926
2 | G44U A108G | -2.57
3 | C56A G69A C101U G110A | -5.53
4 | C82G A118U | 0.179
5 | C12G C20U G36A G71A C80U C82A C88A G120U U126C | -5.21
6 | G48C C56A C72A U78A | -1.06
7 | U7C G93A U132C | -0.396
8 | C40A G93A A111C | -1.04
9 | A37U U59C C70U | -1.46
10 | C22A G39A | -5.08
11 | C53G G71C C72U | -0.79
12 | C76U G113U | -2.36
13 | U96A C104U U132A | -0.322
14 | C88U U112G | 0.74
15 | C62U G63U U78G U81G | -5.08
16 | C53A C73A U78G G110U | -0.702
17 | U7A U9A C11A G42C G47U G61A A118U | -4.21
18 | A18U C76A C94U U112C | -1.22
19 | G63A U87A | -1.03
20 | G71A C124A | 1.21
21 | C62U C115U | -1.22

Row | Variant | polymerase ribozyme fitness (log ratio)
22 | A37U G47U C73U C101G C114U U126G | -7.11
23 | U7G A83U U87A A95U C124A | 0.494
24 | G36U G44A C72A C94G C123G | -4.22
25 | G10C A27U G39U | -3.03
26 | G52U G61C U131A | -1.22
27 | C12A G47C C56A C70U A83U C85U G120C | -4.03
28 | C56G G71U A121C | -2.41
29 | A43G U55C C64U C72G | -2.14
30 | C86G C101A | -1.32
31 | C85U C99U | -4.89
32 | C64U C79U C85A A105G | -5.05
33 | A43G G51C C72U U78G C79A U112A | -5.74
34 | C8G C12G U59G U129C | 0.2
35 | G77U A91U U132A | -2.14
36 | U14G U54A G61C | -2.7
37 | G42A A95C | -1.94
38 | G19C C88U | -2.6
39 | C11G G61A A90U U109G G117A | -6.12
40 | G52U C64G C94U U106A A119G | -6.74
41 | G39A G44C | -1.34
42 | U54C C94G C99U | -4.42

Row | Variant | polymerase ribozyme fitness (log ratio)
43 | G17A C49G A83U U87C G117A | -3.65
44 | C8G C11A G51A G71U U106G G113U U125G | -6.93
45 | A2U G17C A26U G39A U59G G61U A83G C115U | -6.19
46 | U106C A118U G120A | 0.234
47 | G17U A46C C62U U112A C115A U132G U134A | 0.56
48 | C15U C82G A108G A111G A121C | -6.58
49 | G39A U54A | -0.685
50 | C12U U54A C56A A91C C115U | -1.35
51 | C11A C56U G69A C76A C79A C124A | -7.17
52 | G42C A46U | -2.24
53 | A24G G61U C86G | -3.34
54 | C13G G69A U132A | -3.7
55 | C11U G42A C73U C104A U109A U125G | -7.2
56 | C12G U14G G57A G113U | -7.24
57 | C13G A50G G51C G57U A74U | -3.43
58 | C86A C115A G128A U133A | -4.43
59 | A37U G48U G60A C82G A121U | 1.39
60 | C3A U55G | -1.43
61 | G110A U130A | -0.862
62 | A46C G47A C53A G60A C73G | -1.61
63 | C22G U38G U87A C98G U112C C114A | -6.53

Row | Variant | polymerase ribozyme fitness (log ratio)
64 | C3U A84U | -0.78
65 | A41G C64U A91U U106A G110A | -5.83
66 | C124A G127C | 0.796
67 | A18G G117C | -3.04
68 | G19A G39U G61U G120C U132A | -1.96
69 | G61U C94G | -0.934
70 | C11G C98A | -3.33
71 | C3A U116C | -2.44
72 | A27G A50U G61A A83G U126G G128C | -5.38
73 | G42U G45C A50G C82U A121G | 0.685
74 | A43G C73U C79A U96G A118U | -4.39
75 | C22U U129A | -5.14
76 | C34A G36C A46G G93U A119G | -3.14
77 | G36U G120C | 0.124
78 | C20G G44C C72G A95G | -5.22
79 | G19C G58C A75U C82G | -3.28
80 | C72A | 0.126
81 | G47A C73A U126A | -2.35
82 | C34A G69A | -5.23
83 | C13U A26G G58A | -3.1
84 | A5U U33C | -3.68
